Source: publication PMC9570017, “Unorthodox PCNA Binding by Chromatin Assembly Factor 1” (International Journal of Molecular Sciences, 2022)
“Also recorded” adds a separate entry of the source.

How the values were obtained:
PCNA = assay: Crystal model of p150 PIP bound to PCNA; format: binding, human; conditions: synthetic 20-amino acid peptide, crystals at pH 5, resolution 46.2–2.4 Å; only RFF residues modelled; model could not be refined further
Protocol: In order to better understand the molecular basis of CAF-1 binding to PCNA, we determined the crystal model of a complex between a synthetic peptide encompassing the p150 PIP and PCNA. The crystal model was solved using molecular replacement from a previously published PCNA structure (Table 1 and Materials and Methods). PCNA samples were incubated with a 20-amino acid PIP derived from CAF-1 p150. The PIP used for crystallization, […] (PIP residues in italics), spanned the entire PIP region.
A CAF-1 p150 synthetic peptide with the sequence […] was synthesized at the University of Cambridge in-house protein and nucleic acid facility (PNAC). For use in crystallization trials, the synthetic peptide was dissolved in demineralized water to a concentration of 23 mM. Initial crystallization conditions were further refined and optimized with the help of the PACT suite (Qiagen) and Additive Screen (Hampton Research), which contain multiple reagent libraries that enhance the solubility and crystallization of biological macromolecules. […]
The eluate was subsequently purified with a Superdex™ 200 gel filtration column (GE Healthcare) in gel filtration buffer 20 mM Tris pH 7.5, 150 mM NaCl, 1 mM DTT. The fractions corresponding to PCNA homotrimer were pooled, concentrated with an amicon concentrator with 3 kDa MWCO, quantified using absorbance at A280 nm, and stored at - […]

[1] = system: DNA replication-coupled nucleosome assembly (S100 extract from human HEK-293 cells); assay: Replication-dependent nucleosome assembly assay (SV40 DNA replication, S100 extract); format: biochemical; conditions: increasing amounts of in vitro translated p150 (rCAF-1: positive control), 45 min + 45 min at 37 °C, autoradiography
From the text: We next sought to compare the activities of CAF-1 p150, wild-type, and the R426D mutant in a replication-coupled chromatin assembly assay. As a first step to performing this assay, we expressed CAF-1 p150 wild-type and the R426D mutant in a rabbit reticulocyte lysate coupled transcription and translation system and labelled the proteins with [^35S]-methionine. […] In the replication coupled chromatin assembly system, an S100 extract from cultured human HEK-293 cells provides all the cellular DNA replication enzymes and histones but lacks CAF-1 p150 [37]. To this extract, a plasmid containing an SV40 origin of replication and the viral replication protein, SV40 large T antigen, were added to support SV40 DNA replication. Radiolabeled dATP was also added to visualize the replication products by autoradiography.
In contrast, when the recombinant CAF1 protein (p150, p60, p48) or the p150 subunit alone are added, they bind to histones in the S100 extract and promote nucleosome assembly coupled with DNA replication. DNA topoisomerase enzyme I, which is present in the S100 extract (and further supplemented in these assays to ensure sufficient levels), removes the positive supercoiling in the linker DNA that connects nucleosomes, leaving negative supercoiling due to DNA wrapping around histone octamers (evident upon subsequent removal of the histones and electrophoresis).
Replication reactions were assembled as previously reported. […]
The reactions were extracted using phenol, chloroform, and isoamyl alcohol (25:24:1) and the DNA was then precipitated with sodium acetate and ethanol. […] The products of replication were analyzed using a native 1.25% agarose gel in 1X TAE buffer with 1 mM MgCl2, without the addition of ethidium bromide. […] The gel was subsequently imaged and analyzed using a phosphor imager (Typhoon FLA 7000) to visualize the replicated DNA.

Molecule | binding mode to PCNA in crystal model (PCNA) | supercoiling of replicated DNA / nucleosome assembly [1] | supercoiling of replicated DNA / nucleosome assembly ([1]; listed as CAF-1 R426D mutant)
IKAEKAEITRFFQKPKTPQA [CAF-1 p150 PIP] | one CAF-1 p150 PIP bound to each PCNA monomer; also recorded: forms a cation-π interaction with Tyr 250 of PCNA |  | 
wild-type CAF-1 p150: full-length mouse CAF-1 p150 expressed in rabbit reticulocyte lysate (protein, [35S]-methionine labelled) MLEEPEAATRTAAAVDCKDRPGFPVKRLIQARLPFKRLNLVPKEKVEEDTSPKAAVESKVPDLQLSLGTFESQCHTGSHVGLSTKLVGGQGPIDSFLRATIKPVPSVVIIDLTENCSDIPDSPEGHSELSPDTAGVVTTVEGAAKQQEHSAAELCLLETPSDITCHMEEEPGSPGDPKRTGDCQAGSLQSCPELTPGSRTCPTKELSSWSKAGDLLFIEKVPVVVLEDILATKPSIASLPMMSLDRSVTSESEILESCPEDDSILSHSSTNSSSPTSSPEGPSTPPEHRGGRSSPSTPACRVAKNFVKGSTEKGRSKLHRDREQQREEKEKLREEIRRAKEEARKKKEEEKELKEKERREKREKDEKEKAEKQRLKEEKRKERQEALEAKLEEKRKKEEEKRLREEEKRLREEEKRIKAEKAEITRFFQKPKTPQAPKTLAGSCGKFAPFEIKEHMVLAPRCRAALDQDLCDQLDQLLQQQSVASTFLSDLKSRLPLRSGPTRVCGHDTDIMNRDVVIVESSKVDGVSERKKFGRMKLLQFSENHRPAYWGTWNKKTAIIRPRNPWAQDKDLLDYEVDSDDEWEEEEPGESLSHSEGDEDDDVGEDEDEDDGFFVPHGYLSEDEGVTEECADPENHKVHQKLKAKEWDELLAKGKRFRVLQPVHVGCVWASEAANCTSSDLKLLQQFTACLLDVASPDEPEPGASRREKRDQHILAQLLPLLHGNVNGSKVIIHEFQEQCRRGLLTLPSPTPHLQMPNLEDAVAVPSKARLKRLISENSAYEKRPNFRMCWYVHPEVLKSFGQECLPVPCQWTYITTMPSAPREDSGSASTEGPGQSTPMLLKRKPAATMCITQFMKKRRYDGQVGSGDMDGFQADTEEDEEDDTDCMIIDVPDVGSDVSEAPIPAPTLCK |  | the replication products were supercoiled | 
R426D mutant: full-length mouse CAF-1 p150 with R426D, expressed in rabbit reticulocyte lysate (protein, [35S]-methionine labelled) MLEEPEAATRTAAAVDCKDRPGFPVKRLIQARLPFKRLNLVPKEKVEEDTSPKAAVESKVPDLQLSLGTFESQCHTGSHVGLSTKLVGGQGPIDSFLRATIKPVPSVVIIDLTENCSDIPDSPEGHSELSPDTAGVVTTVEGAAKQQEHSAAELCLLETPSDITCHMEEEPGSPGDPKRTGDCQAGSLQSCPELTPGSRTCPTKELSSWSKAGDLLFIEKVPVVVLEDILATKPSIASLPMMSLDRSVTSESEILESCPEDDSILSHSSTNSSSPTSSPEGPSTPPEHRGGRSSPSTPACRVAKNFVKGSTEKGRSKLHRDREQQREEKEKLREEIRRAKEEARKKKEEEKELKEKERREKREKDEKEKAEKQRLKEEKRKERQEALEAKLEEKRKKEEEKRLREEEKRLREEEKRIKAEKAEITDFFQKPKTPQAPKTLAGSCGKFAPFEIKEHMVLAPRCRAALDQDLCDQLDQLLQQQSVASTFLSDLKSRLPLRSGPTRVCGHDTDIMNRDVVIVESSKVDGVSERKKFGRMKLLQFSENHRPAYWGTWNKKTAIIRPRNPWAQDKDLLDYEVDSDDEWEEEEPGESLSHSEGDEDDDVGEDEDEDDGFFVPHGYLSEDEGVTEECADPENHKVHQKLKAKEWDELLAKGKRFRVLQPVHVGCVWASEAANCTSSDLKLLQQFTACLLDVASPDEPEPGASRREKRDQHILAQLLPLLHGNVNGSKVIIHEFQEQCRRGLLTLPSPTPHLQMPNLEDAVAVPSKARLKRLISENSAYEKRPNFRMCWYVHPEVLKSFGQECLPVPCQWTYITTMPSAPREDSGSASTEGPGQSTPMLLKRKPAATMCITQFMKKRRYDGQVGSGDMDGFQADTEEDEEDDTDCMIIDVPDVGSDVSEAPIPAPTLCK |  | much less supercoiling was observed | deficient in nucleosome assembly
